B1: Mitochondrial import receptor subunit TOM70 (Homo sapiens), O94826 (parent)
chain: MAASKPVEAAVVAAAVPSSGSGVGGGGTAGPGTGGLPRWQLALAVGAPLLLGAGAIYLWSRQQRRREARGRGDASGLKRNSERKTPEGRASPAPGSGHPEGPGAHLDMNSLDRAQAAKNKGNKYFKAGKYEQAIQCYTEAISLCPTEKNVDLSTFYQNRAAAFEQLQKWKEVAQDCTKAVELNPKYVKALFRRAKAHEKLDNKKECLEDVTAVCILEGFQNQQSMLLADKVLKLLGKEKAKEKYKNREPLMPSPQFIKSYFSSFTDDIISQPMLKGEKSDEDKDKEGEALEVKENSGYLKAKQYMEEENYDKIISECSKEIDAEGKYMAEALLLRATFYLLIGNANAAKPDLDKVISLKEANVKLRANALIKRGSMYMQQQQPLLSTQDFNMAADIDPQNADVYHHRGQLKILLDQVEEAVADFDECIRLRPESALAQAQKCFALYRQAYTGNNSSQIQAAMKGFEEVIKKFPRCAEGYALYAQALTDQQQFGKADEMYDKCIDLEPDNATTYVHKGLLQLQWKQDLDRGLELISKAIEIDNKCDFAYETMGTIEVQRGNMEKAIDMFNKAINLAKSEMEMAHLYSLCDAAHAQTEVAKKYGLKPPTL
partner: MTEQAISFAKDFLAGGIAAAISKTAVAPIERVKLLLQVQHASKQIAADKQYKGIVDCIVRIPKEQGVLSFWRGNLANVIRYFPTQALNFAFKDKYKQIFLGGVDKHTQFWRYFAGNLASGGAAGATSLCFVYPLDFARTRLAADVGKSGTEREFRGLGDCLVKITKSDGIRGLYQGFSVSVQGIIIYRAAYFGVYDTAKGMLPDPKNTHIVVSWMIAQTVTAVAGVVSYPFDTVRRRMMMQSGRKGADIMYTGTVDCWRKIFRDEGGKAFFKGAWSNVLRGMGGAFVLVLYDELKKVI
B2: Mitochondrial import receptor subunit TOM70 (Homo sapiens), O94826 (parent)
chain: B1 chain

Variants of: B1
Details: with adt3_human SLC25A6, P12236

| effect of a mutation on the interaction | Variant |
| --- | --- |
| decreasing interaction strength | E477A |

Variants of: B2
Details: with hs90b_human HSP90AB1, P08238
Chain of hs90b_human HSP90AB1, P08238 (P08238 whole entry): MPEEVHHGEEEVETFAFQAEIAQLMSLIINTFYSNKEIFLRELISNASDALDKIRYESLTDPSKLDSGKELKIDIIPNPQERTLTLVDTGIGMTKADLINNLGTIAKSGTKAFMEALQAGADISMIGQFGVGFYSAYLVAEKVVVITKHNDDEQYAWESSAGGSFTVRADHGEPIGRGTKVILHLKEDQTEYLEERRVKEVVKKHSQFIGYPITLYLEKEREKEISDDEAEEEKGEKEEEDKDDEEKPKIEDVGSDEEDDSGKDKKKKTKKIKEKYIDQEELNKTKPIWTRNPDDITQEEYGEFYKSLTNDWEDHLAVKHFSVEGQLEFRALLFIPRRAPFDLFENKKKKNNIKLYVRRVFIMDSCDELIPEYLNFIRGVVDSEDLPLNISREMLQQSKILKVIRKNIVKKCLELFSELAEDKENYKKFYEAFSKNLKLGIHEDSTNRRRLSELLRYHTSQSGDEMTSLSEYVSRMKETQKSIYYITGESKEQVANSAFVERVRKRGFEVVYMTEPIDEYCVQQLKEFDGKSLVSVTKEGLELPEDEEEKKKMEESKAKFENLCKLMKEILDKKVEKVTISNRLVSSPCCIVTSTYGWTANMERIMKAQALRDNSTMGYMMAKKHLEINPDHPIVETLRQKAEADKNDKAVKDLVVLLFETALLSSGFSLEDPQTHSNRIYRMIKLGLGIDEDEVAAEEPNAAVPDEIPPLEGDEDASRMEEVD

| Variant | effect of a mutation on the interaction |
| --- | --- |
| E477A | decreasing interaction strength |
| R192A | decreasing interaction strength |
